Data as given in article PMC4963197, “Phosphorylation acts positively and negatively to regulate MRTF-A subcellular localisation and activity” (eLife, 2016).

Key:
G-actin = target: T1, G-actin (Oryctolagus cuniculus, UniProt P68135); experiment: Size exclusion chromatography of G-actin / MRTF-A(67–199) complexes; assay type: binding; details: SEC, recombinant MRTF-A(67–199)
T1 construct: Actin was prepared as described ([Mouilleron et al., 2008]); from tissue; host or cells: rabbit skeletal muscle (own knowledge of the cited method)
Procedure: GST-fusions were expressed in E. coli Rosetta (DE3) pLysS (Novagen). Lysis was in 50 mM Tris-HCl pH 7.5, 300 mM NaCl, 1% TX-100, 5 mM DTT, 10 mM EDTA pH 8, 1 mM PMSF, 15 μg/mL Benzamidine, followed by passage through a French press. Following adsorption onto glutathione-Sepharose, proteins were recovered by cleavage with GST-3C protease at 4°C overnight in 50 mM Tris-HCl (pH 7.5), 100 mM NaCl, 1 mM DTT. Crm1 and Ran(1–180) Q69L were purified as described ([Güttler et al., 2010]).
Preparation of LatB-actin and fluorescence polarisation anisotropy assay were described ([Guettler et al., 2008]). Size exclusion chromatography was on Superdex 200 column equilibrated in 20 mM Tris (pH 8), 100 mM NaCl, 3 mM MgCl2, 0.2 mM EGTA, 0.3 mM TCEP [(tris(2-carboxyethyl)phosphine)], 5% (v/v) glycerol, calibrated with globular proteins of known molecular weight.

Crm1 = experiment: GST pulldown of recombinant Crm1; assay type: binding; details: Ran 1–180 Q69L, 3 hr at 4°C
Procedure: For GST pulldown assays, glutathione-sepharose was saturated with GST-fusion proteins, washed in binding buffer (50 mM Tris-HCl pH 7.5, 100 mM NaCl, 10 mM MgCl2, 0.05% NP-40), and incubated with purified recombinant Crm1, Ran(1–180) Q69L or ERK2 for 3 hr at 4°C. After four washes with binding buffer, proteins were eluted in SDS loading buffer for analysis. For kinase assays, glutathione-Sepharose was saturated with GST-MRTF 2–199, washed in binding buffer, and incubated with purified recombinant ERK2 and actin in binding buffer with 250 μM ATP and 10 mg/ml BSA, at 30°C. The reaction was stopped by addition of SDS loading buffer.

Molecule | apparent molecular mass of G-actin complex (G-actin; Superdex 200, 20 mM Tris (pH 8), 100 mM NaCl, 3 mM MgCl2, 0.2 mM EGTA, 0.3 mM TCEP, 5% glycerol) [kDa] | apparent stoichiometry of G-actin binding (G-actin; Superdex 200, pH 8, calibrated with globular proteins) [actins] | recovery of recombinant Crm1 (Crm1)
MRTF-A(67–199) WT: recombinant MRTF-A(67–199), intact RPEL domain (protein, UniProt Q8K4J6 67-199, looked up, fragment) SRPERAELVRMHILEETSAEPSLQAKQLKLKRARLADDLNEKIAQRPGPMELVEKNILPVESSLKEAIIVGQVNYPKVADSSSFDEDSSDALSPEQPASHESQGSVPSPLESRVSDPLPSATSISPTQVLSQL | 139.8 | 3.0 | 
MRTF residues 2–67: MRTF-A N-terminal residues 2–67 containing NES1 (protein, UniProt Q8K4J6 2-67, looked up, fragment) TLLEPEMLMMAVQSVLQLKLQQRRTREELVSQGIMPPLKSPAAFHEQRRSLERARTEDYLKRKIRS |  |  | could recover recombinant Crm1 from solution in a pulldown assay
